Assay results taken from patent publication US11649285B2.

What was measured:
[1] = target: human VISTA, native (on anti-CD3-activated human T cells and PBMCs) (human (homo sapiens))
[2] = target: human VISTA, native (on anti-CD3-activated human T cells and PBMCs) (human (homo sapiens)); remark: listed apart in the source

B1: Recombinant human VSIG3 Fc Chimera (Fc fusion)
chain: LEVSESPGSIQVARGQTAVLPCTFTTSAALINLNVIWMVTPLSNANQPEQVILYQGGQMFDGAPRFHGRVGFTGTMPATNVSIFINNTQLSDTGTYQCLVNNLPDIGGRNIGVTGLTVLVPPSAPHCQIQGSQDIGSDVILLCSSEEGIPRPTYLWEKLDNTLKLPPTATQDQVQGTVTIRNISALSSGLYQCVASNAIGTSTCLLDLQVISPQPRNIGLIAG
**Q.** What does the source list for B1?
**A.** ED50 of inhibition of MIP-1 alpha secretion, anti-CD3-activated human PBMCs (Quantikine ELISA) [1]: 0.5 µg/mL; ED50 of inhibition of Rantes secretion, anti-CD3-activated human PBMCs (Quantikine ELISA) [1]: 0.5 µg/mL; concentration at which inhibition of CXCL11 secretion occurred, anti-CD3-activated human PBMCs (Quantikine ELISA) [1]: 2 µg/mL; concentration at which inhibition of IL-17 secretion occurred, anti-CD3-activated human PBMCs (Quantikine ELISA) [1]: 10 µg/mL; division of CFSE-labeled human CD3+ T cells with plate-bound anti-CD3 and rhVSIG-3 10 µg/mL, flow cytometry (% CD3+ T cells dividing (72 hours)) [2]: < 25
